Measurements: patent WO2010064089A1
Values belong to the binder of their own block, whether it stands above or below them.

What was measured:
[1] = target: C-Met-Rluc and C-Met-K1100A-YFP co-expressed in a CHO stable cell line (c-Met dimerization BRET model) (R. reniformis), P08581; experiment: cell-based or functional assay
[2] = target: C-Met-Rluc expressed with a mutated form of Gab1 fused to YFP in a CHO stable cell line (c-Met activation BRET model) (R. reniformis), P08581; experiment: cell-based or functional assay

- inhibition of the HGF induced BRET signal, c-Met dimerization model [1]: 62.4%
- inhibition of the HGF effect, c-Met activation BRET model [2]: 66.3%
B1: [224G11][IgG2 chim] (antibody)
heavy: EVQLQQSGPELVKPGASVKISCKTSGYIFTAYTMHWVRQSLGESLDWIGGIKPNNGLANYNQKFKGKATLTVDKSSSTAYMDLRSLTSEDSAVYYCARSEITTEFDYWGQGTALTVSSASTKGPSVFPLAPCSRSTSESTAALGCLVKDYFPEPVTVSWNSGALTSGVHTFPAVLQSSGLYSLSSVVTVPSSNFGTQTYTCNVDHKPSNTKVDKTVERKCCVECPPCPAPPVAGPSVFLFPPKPKDTLMISRTPEVTCVVVDVSHEDPEVQFNWYVDGVEVHNAKTKPREEQFNSTFRVVSVLTVVHQDWLNGKEYKCKVSNKGLPAPIEKTISKTKGQPREPQVYTLPPSREEMTKNQVSLTCLVKGFYPSDIAVEWESNGQPENNYKTTPPMLDSDGSFFLYSKLTVDKSRWQQGNVFSCSVMHEALHNHYTQKSLSLSPG
light: DIVLTQSPASLAVSLGQRATISCRASESVDSYANSFMHWYQQKPGQPPKLLIYRASNLESGIPARFSGSGSRTDFTLTINPVEADDVATYYCQQSKEDPLTFGSGTKLEMKRTVAAPSVFIFPPSDEQLKSGTASVVCLLNNFYPREAKVQWKVDNALQSGNSQESVTEQDSKDSTYSLSSTLTLSKADYEKHKVYACEVTHQGLSSPVTKSFNRGEC

- BRET signal with Mab alone, c-Met dimerization model (% of HGF-induced signal) [1]: 21.3
- inhibition of the HGF induced BRET signal, c-Met dimerization model [1]: 59.4%
- inhibition of the HGF induced BRET signal, c-Met activation model [2]: 56.4%
B2: murine 224G11 Mab (antibody, mouse IgG1, V domains shown)
VH: EVQLQQSGPELVKPGASVKISCKTSGYIFTAYTMHWVRQSLGESLDWIGGIKPNNGLANYNQKFKGKATLTVDKSSSTAYMDLRSLTSEDSAVYYCARSEITTEFDYWGQGTALTVSS
VL: DIVLTQSPASLAVSLGQRATISCRASESVDSYANSFMHWYQQKPGQPPKLLIYRASNLESGIPARFSGSGSRTDFTLTINPVEADDVATYYCQQSKEDPLTFGSGTKLEMKR

- BRET signal with Mab alone, c-Met dimerization model (% of HGF-induced signal) [1]: 46.6
- inhibition of the HGF induced BRET signal, c-Met dimerization model [1]: 28.9%
- BRET signal with Mab alone, c-Met activation model (% of the HGF induced signal) [2]: 32.9
- inhibition of the HGF induced BRET signal, c-Met activation model [2]: 34.5%
B3: [224G11]chim (antibody, human IgG1, V domains shown)
VH: B2 VH
VL: B2 VL

- inhibition of the HGF induced c-Met dimerization BRET signal [1]: 61.8%
- BRET signal with Mab alone, c-Met activation model [2]: 5.1%
- inhibition of the HGF induced activation BRET signal [2]: 59.7%
B4: [224G11][MH chim] (antibody, human IgG1, V domains shown)
VH: B2 VH
VL: B2 VL

- inhibition of the HGF induced c-Met dimerization BRET signal [1]: 52.5%
- BRET signal with Mab alone, c-Met activation model [2]: -2%
- inhibition of the HGF induced activation BRET signal [2]: 53.2%
B5: [224G11][MMCH chim] (antibody, human IgG1, V domains shown)
VH: B2 VH
VL: B2 VL

- inhibition of the HGF induced c-Met dimerization BRET signal [1]: 64.4%
- BRET signal with Mab alone, c-Met activation model [2]: 7.6%
- inhibition of the HGF induced activation BRET signal [2]: 64.4%
B6: [224G11][MUP9H chim] (antibody, human IgG1, V domains shown)
VH: B2 VH
VL: B2 VL
